In series [1] the test system is xCas9 3.7 nuclease (evolved SpCas9) (Streptococcus pyogenes). The experiment in a line: cell_activity. As to conditions: GUIDE-seq HEK293T.
In series [2] the test system is xCas9(3.7)-BE3 (Streptococcus pyogenes). Briefly: cell_activity. As to conditions: HEK293T; PAM GAA; SD 0.75; >50-fold over SpCas9-BE3.

Take “EMX1 site sgRNA spacer ; EMX1 site target, GGG PAM”: the activity (on-target reads) in series [1] (PAM GGG, zero off-target reads) is 6870. Consider “FANCF CGT site sgRNA spacer ; FANCF CGT PAM target”, for which, in series [1] (PAM CGT, no off-target reads), the activity (on-target reads) was 3060. For “FANCF GAA site sgRNA spacer ; FANCF GAA PAM target”, the activity (% C-to-T editing) in series [2] was found to be 10. For the same substance, the activity (on-target reads) in series [1] (PAM GAA, no off-target reads) turned out to be 3630.

Values taken from patent publication US20220307001.
